This assay has as its target human CD73 on human cell lines (human) (UniProt P21589). The assay can be described thus: cell-based or functional assay.

Sequence of human CD73 on human cell lines (human) (P21589 27-549): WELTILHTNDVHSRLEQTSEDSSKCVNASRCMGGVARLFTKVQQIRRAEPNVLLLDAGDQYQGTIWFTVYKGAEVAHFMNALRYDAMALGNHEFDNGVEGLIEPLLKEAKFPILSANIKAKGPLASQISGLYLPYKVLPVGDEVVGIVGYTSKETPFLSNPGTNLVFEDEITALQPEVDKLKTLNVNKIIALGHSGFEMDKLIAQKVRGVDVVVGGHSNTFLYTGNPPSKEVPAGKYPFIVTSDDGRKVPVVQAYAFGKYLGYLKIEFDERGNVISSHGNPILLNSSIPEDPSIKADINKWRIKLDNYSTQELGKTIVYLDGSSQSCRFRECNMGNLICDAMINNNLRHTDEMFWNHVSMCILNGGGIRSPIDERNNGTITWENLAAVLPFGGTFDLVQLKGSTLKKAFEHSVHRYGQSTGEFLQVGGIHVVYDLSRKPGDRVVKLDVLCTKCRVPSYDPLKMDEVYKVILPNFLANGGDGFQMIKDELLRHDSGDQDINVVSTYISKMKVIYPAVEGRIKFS

B1: mAb-CD73.4-IgG2 (antibody, V domains shown, not shown: a dimerising Fc or GST)
VH: QVQLVESGGGVVQPGRSLRLSCAASGFTFSNYGMHWVRQAPGKGLEWVAVILYDGSNKYYPDSVKGRFTISRDNSKNTLYLQMNSLRAEDTAVYYCARGGSSWYPDSFDIWGQGTMVTVSS
VL: DIQMTQSPSSLSASVGDRVTITCRASQGISSWLAWYQQKPEKAPKSLIYAASSLQSGVPSRFSGSGSGTDFTLTISSLQPEDFATYYCQQYNSYPLTFGGGTKVEIKR
B1 registered an internalization T1/2, Calu6 of 36 min; an internalization T1/2, NCI-H292 of 16.6 min; an internalization Ymax, Calu6 of 75.6%; an internalization Ymax, NCI-H292 of 78.4%.

For the origin of these results see patent publication US20200299400A1.
